Test results from patent US11371056B2, “HPPD variants and methods of use” (BASF Agricultural Solutions Seed US LLC, priority 2017, dated 2022).

Tested on: Pseudomonas fluorescens HPPD polypeptide (wild-type and mutants)
Experiment: Coupled HPPD activity assay: turnover and residual turnover in crude HPPD polypeptide extracts with and without Cmpd. 1
Assay type: biochemical
Conditions: for Residual turnover: presence of 100 μM Cmpd. 1; for Residual turnover / Turnover: changes in absorbance (OD) at 320 nm in the coupled assay, 30 min; for turnover and residual turnover, comparison in words: 100 μM Cmpd. 1, Table 3; for Turnover: absence of Cmpd. 1; for Residual turnover [%]: 100 μM Cmpd. 1, normalised to turnover without inhibitor
Description: For the generation of crude HPPD polypeptide extract in micro titer plates (MTP) for the determination of residual activity in inhibition assays, cells were grown in 40 or 150 μl LB medium containing 1% Glucose (Merck, Darmstadt, Germany) and 100 μg/ml ampicillin in a standard 96 well plate (Thermo Fisher Scientific, Waltham, USA) incubated for about 18 h in a humidity incubator at 37° C. 30 μl of this starter culture were added to 600 μl LB medium containing 100 μg/ml ampicillin and 150 mM Hepes (Merck, Darmstadt, Germany) as inoculum for the expression culture in 96 well plates (2 ml deep wells; HJ Bioanalytik, Erkelenz, Germany). The plates were sealed by an aluminium foil, and cells were incubated for 5 h at 37° C. on a plate shaker at 750 rpm. The expression was induced by addition of IPTG in a final concentration of 1 mM followed by further sealed incubation for about 18 h at 30° C. on a plate shaker at 750 rpm.
Cells were harvested by centrifugation at 4° C., 2500 g for 15 min discarding the supernatant. Cell pellets were stored at −80° C. and lysed in 250 μl 1× BugBuster® (Merck, Darmstadt, Germany) in 140 mM Tris (pH 7.8), with 1:25000 diluted BNase® (Qiagen, Hilden, Germany) by incubation of the resuspended cells for 30 min at 4° C. and 1000 rpm. Lysates were clarified by centrifugation for 15 min at 4° C., 2500 g, and 150 μl supernatant were transferred in standard 96 well plate (Thermo Fisher Scientific, Waltham, USA) for subsequent testing in quadruplets.
The activity of HPPD polypeptides was determined in absence or presence of HPPD inhibitors using the coupled HPPD activity assay (FIG. 1).
For the determination of the residual activity, the apparent kinetic constant (kapp) of the determined substrate conversion was measured as kinetic changes in absorbance (OD) at 320 nm in a coupled assay, in that homogentisate (HGA) formed by HPPD from HPP is directly converted into the well absorbing molecule maleylacetoacetate (MAA) by a second enzyme homogentisate dioxygenase (HGD), applied in excess uniformly in all assays (see FIG. 1). The measurements were performed in 384 micro titer plates (Greiner Bio-One GmbH, Frickenhausen, Germany) by plate readers (Tecan infinite M1000 or M1000PRO, Tecan, Männedorf, Switzerland). The kcat/kM ratio of an enzymatic activity is proportional to the apparent kinetic constant kapp and is proportional to kcat/kM*[E] ([E]=enzyme concentration). […] As both kapp measurements in the presence and absence of inhibitor were performed by use of the identical enzyme sample, crude or purified, and thereby at the same enzyme concentration, the enzyme concentration eliminates from the calculation of residual activity and the ratio of both kapp directly indicates the change of kM due to the inhibition.
The assay solution used for determination of residual activities in raw HPPD polypeptide samples was composed by 200 mM sodium phosphate (Merck, Darmstadt, Germany, pH 7.0), 5 mM MgCl2 (Merck, Darmstadt, Germany), 20 mM ascorbate (Sigma-Aldrich, St. Louis, USA), 1 mM DTT (Sigma-Aldrich, St. Louis, USA), 0.1% Pluronic F-68 (Sigma-Aldrich, St. Louis, USA), 40 μM FeSO4 (Sigma-Aldrich, St. […] Louis, USA) and equilibrated for 20 min on ice.

Molecule | time-course of inhibition, inhibitor characteristic (HPPD inhibitor herbicides, FIG. 2: 200 μM HPP, 0, 4 or 13 μM Cmpd. 1) | Residual turnover | turnover and residual turnover, comparison in words | Turnover | Residual turnover [%]
SEQ ID NO:1: reference wild-type Pseudomonas fluorescens HPPD polypeptide (protein, listed as Pseudomonas fluorescens, 4-hydroxyphenylpyruvate dioxygenase (HPPD; Pseudomonas fluorescens) (1)..(358)) MADLYENPMGLMGFEFIEFASPTPGTLEPIFEIMGFTKVATHRSKNVHLYRQGEINLILNNEPNSIASYFAAEHGPSVCGMAFRVKDSQKAYNRALELGAQPIHIDTGPMELNLPAIKGIGGAPLYLIDRFGEGSSIYDIDFVYLEGVERNPVGAGLKVIDHLTHNVYRGRMVYWANFYEKLFNFREARYFDIKGEYTGLTSKAMSAPDGMIRIPLNEESSKGAGQIEEFLMQFNGEGIQHVAFLTDDLVKTWDALKKIGMRFMTAPPDTYYEMLEGRLPDHGEPVDQLQARGILLDGSSVEGDKRLLLQIFSETLMGPVFFEFIQRKGDDGFGEGNFKALFESIERDQVRRGVLTAD | slow and tight binding inhibitor | 0.042 |  |  | 
SEQ ID NO:38 (protein, mutant HPPD polypeptide) MADLYENPMGLMGFEFIEFASPTPGTLEPIFEIMGFTKVATHRSKNVHLYRQGEINLILNNEPNSIASYFAAEHGPSVCGMAFRVKDSQKAYNRALELGAQPIHIDTGPMELNLPAIKGIGGAPLYLIDRFGEGSSIYDIDFVYLEGVERNPVGAGLKVIDHLTHNVYRGRMVYWANFYEKLFNFREARYFDIKGEYTGLTSKAMSAPDGMIRIPLNEESSKGAGQIEEFLMQFNGEGIQHVAFLTDDLVKTWDALKKIGMRFMTAPGDEYYEMLEGRLPDHGEPVDQLQARGILLDGSSVEGDKRLLLQIFSETLMGPVFFEFIQRKGDDGFGPHSFKVLFEQMERDQVRRGVLTAD |  | 0.007 | does not show a significant turnover | 0.008 | 
SEQ ID NO:28 (protein, mutant HPPD polypeptide) MADLYENPMGLMGFEFIEFASPTPGTLEPIFEIMGFTKVATHRSKNVHLYRQGEINLILNNEPNSIASYFAAEHGPSVCGMAFRVKDSQKAYNRALELGAQPIHIDTGPMELNLPAIKGIGGAPLYLIDRFGEGSSIYDIDFVYLEGVERNPVGAGLKVIDHLTHNVYRGRMVYWANFYEKLFNFREARYFDIKGEYTGLTSKAMSAPDGMIRIPLNEESSKGAGQIEEFLMQFNGEGIQHVAFLTDDLVKTWDALKKIGMRFLTAPGDEYYEMLEGRLPDHGEPVDQLQARGILLDGSSVEGDKRLLLQIFSETLMGPVFFEFIQRKGDDGFGPHSFKVLFESIERDQVRRGVLTAD |  | 0.102 | decreases the turnover and residual turnover | 0.203 | 50%
SEQ ID NO:36 (protein, mutant HPPD polypeptide) MADLYENPMGLMGFEFIEFASPTPGTLEPIFEIMGFTKVATHRSKNVHLYRQGEINLILNNEPNSIASYFAAEHGPSVCGMAFRVKDSQKAYNRALELGAQPIHIDTGPMELNLPAIKGIGGAPLYLIDRFGEGSSIYDIDFVYLEGVERNPVGAGLKVIDHLTHNVYRGRMVYWANFYEKLFNFREARYFDIKGEYTGLTSKAMSAPDGMIRIPLNEESSKGAGQIEEFLMQFNGEGIQHVAFLTDDLVKTWDALKKIGMRFMTAPGDEYYEMLEGRLPDHGEPVDQLQARGILLDGSSVEGDKRLLLQIFSEQLMGPVFFEFIQRKGDDGFGPHSFKVLFEQMERDQVRRGVLTAD |  | 0.162 | increases significantly the turnover and residual turnover | 0.244 | 66%
SEQ ID NO:26 (protein, mutant HPPD polypeptide) MADLYENPMGLMGFEFIEFASPTPGTLEPIFEIMGFTKVATHRSKNVHLYRQGEINLILNNEPNSIASYFAAEHGPSVCGMAFRVKDSQKAYNRALELGAQPIHIDTGPMELNLPAIKGIGGAPLYLIDRFGEGSSIYDIDFVYLEGVERNPVGAGLKVIDHLTHNVYRGRMVYWANFYEKLFNFREARYFDIKGEYTGLTSKAMSAPDGMIRIPLNEESSKGAGQIEEFLMQFNGEGIQHVAFLTDDLVKTWDALKKIGMRFLTAPGDEYYEMLEGRLPDHGEPVDQLQARGILLDGSSVEGDKRLLLQIFSEQLMGPVFFEFIQRKGDDGFGPHSFKVLFESIERDQVRRGVLTAD |  | 0.14 | significant improvement regarding residual turnover | 0.235 | 60%
SEQ ID NO:35 (protein, mutant HPPD polypeptide) MADLYENPMGLMGFEFIEFASPTPGTLEPIFEIMGFTKVATHRSKNVHLYRQGEINLILNNEPNSIASYFAAEHGPSVCGMAFRVKDSQKAYNRALELGAQPIHIDTGPMELNLPAIKGIGGAPLYLIDRFGEGSSIYDIDFVYLEGVERNPVGAGLKVIDHLTHNVYRGRMVYWANFYEKLFNFREARYFDIKGEYTGLTSKAMSAPDGMIRIPLNEESSKGAGQIEEFLMQFNGEGIQHVAFLTDDLVKTWDALKKIGMRFMTAPGDEYYEMLEGRLPDHGEPVDQLQARGILLDGSSVEGDKRLLLQIFSEKLMGPVFFEFIQRKGDDGFGPHSFKVLFEQMERDQVRRGVLTAD |  | 0.158 | increases significantly the turnover and residual turnover | 0.27 | 59%
SEQ ID NO:57 (protein, mutant HPPD polypeptide) MADLYENPMGLMGFEFIEFASPTPGTLEPIFEIMGFTKVATHRSKNVHLYRQGEINLILNNEPNSIASYFAAEHGPSVCGMAFRVKDSQKAYNRALELGAQPIHIDTGPMELNLPAIKGIGGAPLYLIDRFGEGSSIYDIDFVYLEGVERNPVGAGLKVIDHLTHNVYRGRMVYWANFYEKLFNFREARYFDIKGEYTGLTSKAMSAPDGMIKIPLNEESSKGAGQIEEFLMQFNGEGIQHVAFLTDDLVKTWDALKKIGMRFMTAPGDEYYEMLEGRLPDHGEPVDQLQARGILLDGSSVEGDKRLLLQIFSEQLMGPVFFEFIQRKGDDGFGPHSFKVLFEQMERDQVRRGVLTAD |  | 0.232 | increases significantly the absolute turnover | 0.34 | 68%
SEQ ID NO:2 (protein, mutant HPPD polypeptide) MADLYENPMGLMGFEFIEFASPTPGTLEPIFEIMGFTKVATHRSKNVHLYRQGEINLILNNEPNSIASYFAAEHGPSVCGMAFRVKDSQKAYNRALELGAQPIHIDTGPMELNLPAIKGIGGAPLYLIDRFGEGSSIYDIDFVYLEGVERNPVGAGLKVIDHLTHNVYRGRMVYWANFYEKLFNFREARYFDIKGEYTGLTSKAMSAPDGMIRIPLNEESSKGAGQIEEFLMQFNGEGIQHVAFLTDDLVKTWDALKKIGMRFMTAPPDTYYEMLEGRLPDHGEPVDQLQARGILLDGSSVEGDKRLLLQIFSETLMGPVFFEFIQRKGDDGFGPWNFAQLFESIERDQVRRGVLTAD |  | 0.041 |  | 0.092 | 
SEQ ID NO:61 (protein, mutant HPPD polypeptide) MADLYENPMGLMGFEFIEFASPTPGTLEPIFEIMGFTKVATHRSKNVHLYRQGEINLILNNEPNSIASYFAAEHGPSVCGMAFRVKDSQKAYNRALELGAQPIHIDTGPMELNLPAIKGIGGAPLYLIDRFGEGSSIYDIDFVYLEGVERNPVGAGLKVIDHLTHNVYRGRMVYWANFYEKLFNFREARYFDIKGEYTGLTSKAMSAPDGMIKIPLNEESSKGAGQIEEFLMQFNGEGIQHVAFLTDDLVKTWDALKKIGMRFLTAPGDEYYEMLEGRLPDHGEPVDQLQARGILLDGSSVEGDKRLLLQIFSEQLMGPVFFEFIQRKGDDGFGPDSFKVLFEQMERDQVRRGVLTAD |  | 0.116 | decreases the turnover and residual turnover | 0.206 | 56%
